Measurements taken from patent US20220306756A1 (WAKE FOREST UNIVERSITY HEALTH SCIENCES, published 2022).

Assays:
Experiment in all cases: RIA, competition with 125I-Ang-(1-12)
Angiotensin-(1-7) = molecular target: T1, Angiotensin-(1-7)
T1 construct: also called Ang-(1-7)
T1 peptide: DRVYIHP
Method: (§1) h-Ang-(1-12) Specificity and Cross-reactivity Assays: For specificity, a synthetic non-radiolabeled h-Ang-(1-12) standard (purity≥98%) was used. Briefly, 200 μL of the RIA buffer (50 mM PBS, 25 mM EDTA, 0.5% triton X-100, 0.05% sodium azide and 0.5% BSA, pH 7.4) containing 50 μL of mAb (1:2,000 dilution of IgG concentration 1.3 mg/mL), 50 μL of 125I-Ang-(1-12) [6-8 fmoles/tube, purity>99%] and 50 μL of different concentrations of non-radiolabeled human Ang-(1-12) peptide (0 to 10,000 fmol/0.2 mL RIA tube) were combined and the RIA tubes were incubated overnight for 20-22 hours at 4° C. At the end of incubation period, 50 μL of 1% γ-globulin were added, mixed, and the bound/free (B/Bo) forms of h-Ang-(1-12) were then separated by precipitating the bound (B) fraction with 200 μL of 23% polyethylene glycol (PEG). The bound and unbound (Bo) traces were separated by centrifuging the tubes at 3,000 rpm for 30 min at 4° C. The radioactivity corresponding to the antibody-bound antigen in the precipitate were measured in a PerkinElmer Wizard2 Gamma Counter. The binding data were analyzed and graphed using a statistical program (GraphPad Prism 8). To examine the cross-reactivity of the mAb with human and rat AGT or AGT-derived angiotensin peptides, several fold higher concentrations (AGT up to 10,000 fmol and angiotensin peptides up to 5,000 fmol) were used. Briefly, in a total of 200 μL of RIA buffer we added 50 μL of h-Ang-(1-12) mAb (1:2,000 dilution), 50 μL of ¹²⁵I-Ang-(1-12) and 50 μL of non-radiolabeled angiotensin peptides [Ang I, ([…]; SEQ ID NO:20); Ang-(1-9), ([…]; SEQ ID NO:23); Ang II, ([…]; SEQ ID NO:21); Ang-(1-7), (DRVYIHP; SEQ ID NO:22) and rat Ang-(1-12), ([…]; SEQ ID NO:24)] or purified AGT protein (10,000 fmol per RIA tube) and after mixing the contents, the RIA tubes were incubated overnight (20-22 hours at 4° C.) and processed as described above.

Ang-(1-9) = molecular target: Ang-(1-9)
Method: as §1

[1] = molecular target: T2, purified human angiotensinogen (AGT) protein (human, UniProt P01019 25-476)
T2 construct: also called human AGT
T2 sequence (looked up): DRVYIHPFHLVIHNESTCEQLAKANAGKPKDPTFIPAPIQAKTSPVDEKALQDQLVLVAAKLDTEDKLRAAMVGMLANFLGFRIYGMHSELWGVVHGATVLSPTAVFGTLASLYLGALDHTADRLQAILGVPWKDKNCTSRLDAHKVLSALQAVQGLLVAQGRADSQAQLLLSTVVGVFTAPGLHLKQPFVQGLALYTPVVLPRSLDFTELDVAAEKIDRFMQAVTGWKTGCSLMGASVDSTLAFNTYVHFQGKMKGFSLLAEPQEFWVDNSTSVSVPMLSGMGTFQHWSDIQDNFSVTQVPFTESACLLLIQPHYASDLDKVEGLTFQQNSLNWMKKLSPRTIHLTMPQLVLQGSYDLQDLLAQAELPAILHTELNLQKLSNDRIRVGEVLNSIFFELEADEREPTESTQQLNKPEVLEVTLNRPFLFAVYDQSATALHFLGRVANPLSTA
Method: as §1

[2] = molecular target: T3, purified rat angiotensinogen (AGT) protein (rat, UniProt P01015 25-477)
T3 construct: also called rat AGT
T3 sequence (looked up): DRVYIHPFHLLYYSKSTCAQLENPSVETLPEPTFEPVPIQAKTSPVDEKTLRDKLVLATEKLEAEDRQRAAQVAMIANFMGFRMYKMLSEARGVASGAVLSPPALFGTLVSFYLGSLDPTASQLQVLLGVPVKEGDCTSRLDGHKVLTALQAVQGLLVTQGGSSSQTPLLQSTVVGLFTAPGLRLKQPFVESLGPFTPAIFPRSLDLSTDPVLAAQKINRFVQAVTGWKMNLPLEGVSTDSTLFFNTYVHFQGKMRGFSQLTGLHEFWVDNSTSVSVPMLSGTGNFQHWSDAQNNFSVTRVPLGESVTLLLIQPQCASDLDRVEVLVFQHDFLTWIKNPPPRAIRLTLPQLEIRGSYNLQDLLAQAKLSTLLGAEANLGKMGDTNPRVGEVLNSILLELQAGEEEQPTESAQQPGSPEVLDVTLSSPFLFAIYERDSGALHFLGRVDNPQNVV
Method: as §1

B1: h-Ang-(1-12) monoclonal antibody, Clone# 14B3 (Protein L purified mAb IgG) (antibody, V domains shown)
VH: DVQLQESGPGLVKPSQSLSLTCTVNGYSITSDFAWNWIRQFPGNKLEWMGYISYSGNTYYNPSLKSRISITRDTSKNQFFLQLNSVTTEDTATYYCARGSYYFDYWGQGTTLTVSS
VL: DIVMSQSPSSLAVSAGEKVTMSCKSSQSLLNSRTRKNYLAWYQQKPGQSPKLLIYWASTRESGVPDRFTGSGSGTDFTLTISSVQAEDLAVYYCKQSYNLRTFGGGTKLEIK
notes: also called Ang-(1-12)-mAb; h-Ang-(1-12) mAb
Does B1 bind (Angiotensin-(1-7))?
Result: no binding (tested: angiotensin peptides up to 5,000 fmol)

Does B1 bind (Ang-(1-9))?
Result: no binding (tested: angiotensin peptides up to 5,000 fmol)

Does B1 bind [1]?
Result: no binding (tested: AGT up to 10,000 fmol)

Does B1 bind [2]?
Result: no binding (tested: AGT up to 10,000 fmol)
